What was measured:
[1] = target: A. fulgidus HypB, tag-free (Archaeoglobus fulgidus); assay: SEC-MALS; AfHypB (0.5 mM) preloaded with 5 mM GMPPNP and 1 mM NiCl2, excess removed; Superdex-75 HR10/30, 50 mM Tris pH 7.5, 0.2 M NaCl, 5 mM MgCl2, 1 mM TCEP
[2] = target: A. fulgidus HypA, tag-free (Archaeoglobus fulgidus) (UniProt O28904); assay: SEC-MALS; equimolar AfHypA and AfHypB preloaded with GDP (monomeric form); Superdex-75 HR10/30, 50 mM Tris pH 7.5, 0.2 M NaCl, 1 mM TCEP, room temperature; peaks checked by SDS-PAGE
Sequence of UniProt O28904 (O28904 whole entry): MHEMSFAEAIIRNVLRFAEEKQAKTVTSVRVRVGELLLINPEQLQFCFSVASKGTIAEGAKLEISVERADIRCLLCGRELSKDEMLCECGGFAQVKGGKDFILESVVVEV

stoichiometry N [1]: 2
stoichiometry N [2]: 1
Substance: A. fulgidus HypB, tag-free (natural protein)
